Positions count from the first letter of the chain named.
T1: Flag-Smad4, full length (UniProt Q13485 1-552)
T1 construct: Smad4; plasmid pCMV5-Flag-Smad4 (from J. Massagué); also called Smad4 FL; source: HEK-293, transfected, in lysate
T1 sequence (looked up): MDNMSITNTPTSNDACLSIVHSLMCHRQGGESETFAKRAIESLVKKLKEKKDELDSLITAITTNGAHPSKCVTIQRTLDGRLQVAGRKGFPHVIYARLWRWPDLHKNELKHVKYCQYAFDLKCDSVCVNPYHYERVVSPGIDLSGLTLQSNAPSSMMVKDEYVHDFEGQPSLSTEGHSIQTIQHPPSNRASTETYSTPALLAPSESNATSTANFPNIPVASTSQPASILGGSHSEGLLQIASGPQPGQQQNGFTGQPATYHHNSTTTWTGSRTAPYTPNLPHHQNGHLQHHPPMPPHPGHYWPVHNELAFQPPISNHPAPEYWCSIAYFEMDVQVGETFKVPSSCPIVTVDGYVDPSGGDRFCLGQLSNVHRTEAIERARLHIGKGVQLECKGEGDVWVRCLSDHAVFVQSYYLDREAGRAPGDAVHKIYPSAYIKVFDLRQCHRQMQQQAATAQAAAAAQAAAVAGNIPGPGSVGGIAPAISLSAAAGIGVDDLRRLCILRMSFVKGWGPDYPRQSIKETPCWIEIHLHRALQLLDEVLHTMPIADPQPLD

T2: SIP1 Smad-binding domain (amino acids 315–487) on the 3xFlag-thioredoxin scaffold (UniProt Q9R0G7 315-487)
T2 construct: SIP1, amino acids 315–487; amplified from pACT2-SIP1-315-487 (from D. Huylebroeck), which I recall as a mouse clone; cloned into the RsrII site of pCI-3xFLAG-Trx; also called Sip1 315–487; TrxSIP1; source: HEK-293, transfected, in lysate
T2 sequence (looked up): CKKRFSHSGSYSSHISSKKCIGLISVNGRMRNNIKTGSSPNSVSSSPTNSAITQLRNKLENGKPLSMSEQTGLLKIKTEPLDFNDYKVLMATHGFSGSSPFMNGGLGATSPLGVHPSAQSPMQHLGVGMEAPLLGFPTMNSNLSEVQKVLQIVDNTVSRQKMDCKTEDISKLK

T3: Ski Smad-binding domain (amino acids 2–56) on the 3xFlag-thioredoxin scaffold (UniProt P12755 2-56)
T3 construct: Ski, amino acids 2–56; cloned into the unique RsrII site of pCI-3xFLAG-Trx; also called Ski aa2–56; TrxSki; source: HEK-293, transfected, in lysate
T3 sequence (looked up): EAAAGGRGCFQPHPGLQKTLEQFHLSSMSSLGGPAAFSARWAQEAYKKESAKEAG

T4: Flag-SkiW274E, full length (UniProt P12755 1-728, W274E)
T4 construct: plasmid pCMV5b-Flag-SkiW274E (from K. Luo); also called SkiW274E FL; SKI274E; source: HEK-293, transfected, in lysate
T4 sequence (looked up): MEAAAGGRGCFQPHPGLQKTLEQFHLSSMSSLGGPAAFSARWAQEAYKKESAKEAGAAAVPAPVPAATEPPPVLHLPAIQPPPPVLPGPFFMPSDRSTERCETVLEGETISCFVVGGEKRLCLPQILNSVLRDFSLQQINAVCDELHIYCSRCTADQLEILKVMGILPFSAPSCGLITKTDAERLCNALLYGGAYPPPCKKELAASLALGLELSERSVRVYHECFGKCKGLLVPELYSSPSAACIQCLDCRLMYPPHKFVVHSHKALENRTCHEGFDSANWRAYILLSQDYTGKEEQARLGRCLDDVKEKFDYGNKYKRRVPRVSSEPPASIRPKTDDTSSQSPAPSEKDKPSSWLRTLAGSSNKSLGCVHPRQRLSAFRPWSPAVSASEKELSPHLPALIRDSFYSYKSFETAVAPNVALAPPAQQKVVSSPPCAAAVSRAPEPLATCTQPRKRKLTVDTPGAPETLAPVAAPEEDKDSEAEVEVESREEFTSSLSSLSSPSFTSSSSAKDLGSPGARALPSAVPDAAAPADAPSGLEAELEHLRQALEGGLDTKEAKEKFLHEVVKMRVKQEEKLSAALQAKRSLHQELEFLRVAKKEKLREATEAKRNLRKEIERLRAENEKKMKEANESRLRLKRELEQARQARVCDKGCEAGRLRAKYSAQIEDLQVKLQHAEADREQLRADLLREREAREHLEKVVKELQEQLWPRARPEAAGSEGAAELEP

B1: Renilla luciferase-Smad3 R292A (natural protein, UniProt P84022 1-425, looked up)
chain: MSSILPFTPPIVKRLLGWKKGEQNGQEEKWCEKAVKSLVKKLKKTGQLDELEKAITTQNVNTKCITIPRSLDGRLQVSHRKGLPHVIYCRLWRWPDLHSHHELRAMELCEFAFNMKKDEVCVNPYHYQRVETPVLPPVLVPRHTEIPAEFPPLDDYSHSIPENTNFPAGIEPQSNIPETPPPGYLSEDGETSDHQMNHSMDAGSPNLSPNPMSPAHNNLDLQPVTYCEPAFWCSISYYELNQRVGETFHASQPSMTVDGFTDPSNSERFCLGLLSNVNRNAAVELTRRHIGAGVRLYYIGGEVFAECLSDSAIFVQSPNCNQRYGWHPATVCKIPPGCNLKIFNNQEFAALLAQSVNQGFEAVYQLTRMCTIRMSFVKGWGAEYRRQTVTSTPCWIELHLNGPLQWLDKVLTQMGSPSIRCSSVS
notes: Smad3; source: HEK-293, transfected together with constitutively active Alk5, in lysate
B2: Renilla luciferase-Smad3 R268A (natural protein, UniProt P84022 1-425, looked up)
chain: B1 chain with R268A, A292R
notes: as for B1
B3: Renilla luciferase-Smad3 R243A (natural protein, UniProt P84022 1-425, looked up)
chain: B1 chain with R243A, A292R
notes: as for B1
B4: Renilla luciferase-Smad3 Y384A (natural protein, UniProt P84022 1-425, looked up)
chain: B1 chain with A292R, Y384A
notes: as for B1
B5: Renilla luciferase-Smad3 Y238A (natural protein, UniProt P84022 1-425, looked up)
chain: B1 chain with Y238A, A292R
notes: as for B1
B6: Renilla luciferase-Smad3 D408H (natural protein, UniProt P84022 1-425, looked up)
chain: B1 chain with A292R, D408H
notes: as for B1

Biological target: T1, Flag-Smad4, full length
Test: co-IP; LUMIER: Renilla luciferase-Smad3 and Flag-tagged partner co-expressed with constitutively active Alk5 in HEK-293; Flag protein captured from cleared lysate (TNE: 10 mM Tris-HCl pH 7.8, 150 mM NaCl, 1 mM EDTA, 1% Igepal CA-630) on anti-Flag 96-well plates, 2 h at 4 °C; co-precipitated Renilla luciferase activity, TrxGA background subtracted, percent of wild-type Smad3
Details: partners not purified

Binder | percent binding relative to wild-type Smad3 [%]
B1 | 49
B2 | 18
B3 | 20
B4 | 19
B5 | 27

Biological target: T2, SIP1 Smad-binding domain (amino acids …)
Test: as above
Details: partners not purified

Binder | percent binding relative to wild-type Smad3 [%]
B6 | 41
B1 | 32
B2 | 13
B3 | 28
B4 | 41
B5 | 15

Biological target: T3, Ski Smad-binding domain (amino acids …)
Test: as above
Details: partners not purified

Binder | percent binding relative to wild-type Smad3 [%]
B1 | 4
B2 | 2
B3 | 3
B4 | 3
B5 | 2

Biological target: T4, Flag-SkiW274E, full length
Test: as above
Details: partners not purified

Binder | percent binding relative to wild-type Smad3 [%]
B6 | 31
B1 | 59
B2 | 62
B3 | 72
B4 | 53
B5 | 44

Reference: article PMC3176292, “Mutations in Protein-Binding Hot-Spots on the Hub Protein Smad3 Differentially Affect Its Protein Interactions and Smad3-Regulated Gene Expression” (PLoS ONE, 2011)
